± gives the uncertainty stated by the source.
B1: Glucocorticoid receptor, residues 419 to 494; numbered along this chain, P04150 (parent)
chain: KLCLVCSDEASGCHYGVLTCGSCKVFFKRAVEGQHNYLCAGRNDCIIDKIRRKNCPACRYRKCLQAGMNLEARKTK

Variants of: B1
Assay: abundance fitness (aPCA) (normalised: wild type 0, dead -1); higher = more abundant; growth selection in yeast, the domain comes from the species named
Conditions: Homo sapiens
KLCLVCSDEASGCHYGVLTCGSCKTFFKRAVEGQHNYLCAGRNDCIIDKIRRKNCPACRYRKCLQAGMNLEARKTK gave an abundance fitness of -0.019 ± 0.062.
KLCLVCSDEASGCHYGVLTCGSCKRFFKRAVEGQHNYLCAGRNDCIIDKIRRKNCPACRYRKCLQAGMNLEARKTK gave an abundance fitness of 0.085 ± 0.044.
Work on KLCLVCSDEASGCHYGVLTCGSCKNFFKRAVEGQHNYLCAGRNDCIIDKIRRKNCPACRYRKCLQAGMNLEARKTK yielded an abundance fitness of -0.081 ± 0.09.
KLCLVCSDEASGCHYGVLTCGSCKYFFKRAVEGQHNYLCAGRNDCIIDKIRRKNCPACRYRKCLQAGMNLEARKTK gave an abundance fitness of -0.129 ± 0.098.
KLCLVCSDEASGCHYGVLTCGSCKQFFKRAVEGQHNYLCAGRNDCIIDKIRRKNCPACRYRKCLQAGMNLEARKTK gave an abundance fitness of 0.015 ± 0.087.
Variant KLCLVCSDEASGCHYGVLTCGSCKPFFKRAVEGQHNYLCAGRNDCIIDKIRRKNCPACRYRKCLQAGMNLEARKTK has an abundance fitness of -0.614 ± 0.13.
For KLCLVCSDEASGCHYGVLTCGSCKWFFKRAVEGQHNYLCAGRNDCIIDKIRRKNCPACRYRKCLQAGMNLEARKTK, the abundance fitness was -0.039 ± 0.062.
KLCLVCSDEASGCHYGVLTCGSCKMFFKRAVEGQHNYLCAGRNDCIIDKIRRKNCPACRYRKCLQAGMNLEARKTK showed an abundance fitness of -0.094 ± 0.067.
KLCLVCSDEASGCHYGVLTCGSCKVFFKMAVEGQHNYLCAGRNDCIIDKIRRKNCPACRYRKCLQAGMNLEARKTK gave an abundance fitness of -0.113 ± 0.046.
In the case of KLCLVCSDEASGCHYGVLTCGSCKVFFKFAVEGQHNYLCAGRNDCIIDKIRRKNCPACRYRKCLQAGMNLEARKTK, the abundance fitness is reported as -0.152 ± 0.076.
KLCLVCSDEASGCHYGVLTCGSCKVFFKCAVEGQHNYLCAGRNDCIIDKIRRKNCPACRYRKCLQAGMNLEARKTK showed an abundance fitness of -0.077 ± 0.07.
With KLCLVCSDEASGCHYGVLTCGSCKVFFKAAVEGQHNYLCAGRNDCIIDKIRRKNCPACRYRKCLQAGMNLEARKTK the abundance fitness was -0.024 ± 0.042.
KLCLVCSDEASGCHYGVLTCGSCKVFFKKAVEGQHNYLCAGRNDCIIDKIRRKNCPACRYRKCLQAGMNLEARKTK showed an abundance fitness of 0.03 ± 0.059.
KLCLVCSDEASGCHYGVLTCGSCKVFFKDAVEGQHNYLCAGRNDCIIDKIRRKNCPACRYRKCLQAGMNLEARKTK showed an abundance fitness of 0.02 ± 0.072.
For KLCLVCSDEASGCHYGVLTCGSCKVFFKEAVEGQHNYLCAGRNDCIIDKIRRKNCPACRYRKCLQAGMNLEARKTK, the abundance fitness was 0.033 ± 0.05.
KLCLVCSDEASGCHYGVLTCGSCKVFFKHAVEGQHNYLCAGRNDCIIDKIRRKNCPACRYRKCLQAGMNLEARKTK showed an abundance fitness of -0.071 ± 0.075.
In the case of KLCLVCSDEASGCHYGVLTCGSCKVFFKIAVEGQHNYLCAGRNDCIIDKIRRKNCPACRYRKCLQAGMNLEARKTK, the abundance fitness is reported as 0.018 ± 0.064.
Work on KLCLVCSDEASGCHYGVLTCGSCKVFFKLAVEGQHNYLCAGRNDCIIDKIRRKNCPACRYRKCLQAGMNLEARKTK yielded an abundance fitness of -0.017 ± 0.034.
KLCLVCSDEASGCHYGVLTCGSCKVFFKNAVEGQHNYLCAGRNDCIIDKIRRKNCPACRYRKCLQAGMNLEARKTK showed an abundance fitness of -0.007 ± 0.083.
Variant KLCLVCSDEASGCHYGVLTCGSCKVFFKGAVEGQHNYLCAGRNDCIIDKIRRKNCPACRYRKCLQAGMNLEARKTK has an abundance fitness of -0.057 ± 0.034.
KLCLVCSDEASGCHYGVLTCGSCKVFNKRAVEGQHNYLCAGRNDCIIDKIRRKNCPACRYRKCLQAGMNLEARKTK showed an abundance fitness of -0.722 ± 0.25.
With KLCLVCSDEASGCHYGVLTCGSCKVFSKRAVEGQHNYLCAGRNDCIIDKIRRKNCPACRYRKCLQAGMNLEARKTK the abundance fitness was -0.681 ± 0.079.
KLCLVCSDEASGCHYGVLTCGSCKVFQKRAVEGQHNYLCAGRNDCIIDKIRRKNCPACRYRKCLQAGMNLEARKTK showed an abundance fitness of -0.896 ± 0.14.
For KLCLVCSDEASGCHYGVLTCGSCKVFKKRAVEGQHNYLCAGRNDCIIDKIRRKNCPACRYRKCLQAGMNLEARKTK, the abundance fitness was -0.951 ± 0.2.
Variant KLCLVCSDEASGCHYGVLTCGSCKVFPKRAVEGQHNYLCAGRNDCIIDKIRRKNCPACRYRKCLQAGMNLEARKTK has an abundance fitness of -0.695 ± 0.15.
In the case of KLCLVCSDEASGCHYGVLTCGSCKVFGKRAVEGQHNYLCAGRNDCIIDKIRRKNCPACRYRKCLQAGMNLEARKTK, the abundance fitness is reported as -0.929 ± 0.089.
KLCLVCSDEASGCHYGVLTCGSCKVFMKRAVEGQHNYLCAGRNDCIIDKIRRKNCPACRYRKCLQAGMNLEARKTK showed an abundance fitness of -0.144 ± 0.052.
Work on KLCLVCSDEASGCHYGVLTCGSCKVFWKRAVEGQHNYLCAGRNDCIIDKIRRKNCPACRYRKCLQAGMNLEARKTK yielded an abundance fitness of -0.071 ± 0.038.
KLCLVCSDEASGCHYGVLTCGSCKVFAKRAVEGQHNYLCAGRNDCIIDKIRRKNCPACRYRKCLQAGMNLEARKTK gave an abundance fitness of -0.25 ± 0.038.
Work on KLCLVCSDEASGCHYGVLTCGSCKVFEKRAVEGQHNYLCAGRNDCIIDKIRRKNCPACRYRKCLQAGMNLEARKTK yielded an abundance fitness of -1.01 ± 0.16.
KLCLVCSDEASGCHYGVLTCGSCKVFCKRAVEGQHNYLCAGRNDCIIDKIRRKNCPACRYRKCLQAGMNLEARKTK gave an abundance fitness of -0.518 ± 0.11.
KLCLVCSDEASGCHYGVLTCGSCKVFDKRAVEGQHNYLCAGRNDCIIDKIRRKNCPACRYRKCLQAGMNLEARKTK gave an abundance fitness of -0.912 ± 0.18.
With KLCLVCSDEASGCHYGVLTCGSCKVFRKRAVEGQHNYLCAGRNDCIIDKIRRKNCPACRYRKCLQAGMNLEARKTK the abundance fitness was -0.678 ± 0.053.
Work on KLCLVCSDEASGCHYGVLTCGSCKVFIKRAVEGQHNYLCAGRNDCIIDKIRRKNCPACRYRKCLQAGMNLEARKTK yielded an abundance fitness of -0.26 ± 0.08.
In the case of KLCLVCSDEASGCHYGVLTCGSCKVFYKRAVEGQHNYLCAGRNDCIIDKIRRKNCPACRYRKCLQAGMNLEARKTK, the abundance fitness is reported as 0 ± 0.073.
With KLCLVCSDEASGCHYGVLTCGSCKVFVKRAVEGQHNYLCAGRNDCIIDKIRRKNCPACRYRKCLQAGMNLEARKTK the abundance fitness was -0.386 ± 0.041.

From the Human Domainome abundance scans (Beltran et al. 2025)
